Experimental data as given in paper PMC5575007, “Intermolecular base stacking mediates RNA-RNA interaction in a crystal structure of the RNA chaperone Hfq”.

What was measured:
Hfq102 [1] = target: T1, Hfq102 (Escherichia coli, UniProt P0A6X3 1-102); assay: AUC; s = 4.5S alone; with OxyS segment ternary s = 5.9S; ITC/FA: 0.25 M NaCl, 20 mM Hepes/NaOH pH 8.0, 5 mM MgCl2, 2% glycerol, 25 C (FA plus 1 g/l BSA); EMSA: 0.25 M NaCl, 50 mM Tris pH 7.5, 10% glycerol, 25 C, 20 nM RNA, 2-200 nM Hfq; conditions: protein: recombinant; tags: 6xHis-SUMO tag cleaved (SenP2); chain copies: 6; label: 3' Cy3 or Cy5
Hfq72 [2] = target: T2, Hfq72 (Escherichia coli, UniProt P0A6X3 1-72); assay: ITC; first of two events; ITC/FA: 0.25 M NaCl, 20 mM Hepes/NaOH pH 8.0, 5 mM MgCl2, 2% glycerol, 25 C (FA plus 1 g/l BSA); EMSA: 0.25 M NaCl, 50 mM Tris pH 7.5, 10% glycerol, 25 C, 20 nM RNA, 2-200 nM Hfq; conditions: protein: recombinant; tags: 6xHis-SUMO tag cleaved (SenP2); chain copies: 6; label: none (AUC, ITC); 5'-32P (EMSA)
Hfq102R16A,R17A [3] = target: T3, Hfq102R16A,R17A (Escherichia coli, UniProt P0A6X3 1-102, R16A;R17A); assay: EMSA; two shifted bands; ITC/FA: 0.25 M NaCl, 20 mM Hepes/NaOH pH 8.0, 5 mM MgCl2, 2% glycerol, 25 C (FA plus 1 g/l BSA); EMSA: 0.25 M NaCl, 50 mM Tris pH 7.5, 10% glycerol, 25 C, 20 nM RNA, 2-200 nM Hfq; conditions: protein: recombinant; tags: 6xHis-SUMO tag cleaved (SenP2); chain copies: 6; label: none (AUC, ITC); 5'-32P (EMSA)
Hfq72 [4] = target: T2, Hfq72; assay: fluorescence anisotropy; first of two events; 1 g/l BSA; ITC/FA: 0.25 M NaCl, 20 mM Hepes/NaOH pH 8.0, 5 mM MgCl2, 2% glycerol, 25 C (FA plus 1 g/l BSA); EMSA: 0.25 M NaCl, 50 mM Tris pH 7.5, 10% glycerol, 25 C, 20 nM RNA, 2-200 nM Hfq; conditions: protein: recombinant; tags: 6xHis-SUMO tag cleaved (SenP2); chain copies: 6; label: 3'-ATTO488
Hfq102 [5] = target: T1, Hfq102; assay: AUC; s = 4.5S alone; with fhlA segment ternary s = 5.9S; ITC/FA: 0.25 M NaCl, 20 mM Hepes/NaOH pH 8.0, 5 mM MgCl2, 2% glycerol, 25 C (FA plus 1 g/l BSA); EMSA: 0.25 M NaCl, 50 mM Tris pH 7.5, 10% glycerol, 25 C, 20 nM RNA, 2-200 nM Hfq; conditions: protein: recombinant; tags: 6xHis-SUMO tag cleaved (SenP2); chain copies: 6; label: 3' Cy5 or Cy3
Hfq102R16A,R17A [6] = target: T3, Hfq102R16A,R17A; assay: EMSA; significant supershift; ITC/FA: 0.25 M NaCl, 20 mM Hepes/NaOH pH 8.0, 5 mM MgCl2, 2% glycerol, 25 C (FA plus 1 g/l BSA); EMSA: 0.25 M NaCl, 50 mM Tris pH 7.5, 10% glycerol, 25 C, 20 nM RNA, 2-200 nM Hfq; conditions: protein: recombinant; tags: 6xHis-SUMO tag cleaved (SenP2); chain copies: 6; label: 5'-32P
Hfq72 [7] = target: T2, Hfq72; assay: X-ray crystallography; 2.5 A; distal face; (Hfq6:A18)2 dimer by N-site base stacking; pH 4.2; ITC/FA: 0.25 M NaCl, 20 mM Hepes/NaOH pH 8.0, 5 mM MgCl2, 2% glycerol, 25 C (FA plus 1 g/l BSA); EMSA: 0.25 M NaCl, 50 mM Tris pH 7.5, 10% glycerol, 25 C, 20 nM RNA, 2-200 nM Hfq; conditions: protein: recombinant; tags: 6xHis-SUMO tag cleaved (SenP2); chain copies: 6

B1: fhlA (ARN)X segment (ssRNA)
RNA: CUAAUAAAAUUCUACCUAGAAGAACAAAAUGUC
- binding result (Hfq102 [1]): binds

B2: A20 (ssRNA)
RNA: AAAAAAAAAAAAAAAAAAAA
- Kd (Hfq72 [2]): 1.3 nM
- binding result (Hfq102R16A,R17A [3]): binds

B3: A20-ATTO488 (ssRNA)
RNA: AAAAAAAAAAAAAAAAAAAA
- Kd (Hfq72 [4]): 0.4 nM

B4: OxyS (ARN)X segment (ssRNA)
RNA: UCAACUCGAAUAACUAAAGCCAACGUGAAC
- binding result (Hfq102 [5]): binds

B5: AAG (ssRNA)
RNA: AAGAAGAAGAAGAAGAAGAA
- binding result (Hfq102R16A,R17A [6]): binds

B6: A18 (ordered part of A30) (ssRNA)
RNA: AAAAAAAAAAAAAAAAAA
- binding result (Hfq72 [7]): binds
